For assay [1], the target named is T1, Muscle fructose-1,6-bisphosphatase (FBP2), wild-type (Homo sapiens, UniProt O00757).
T1 construct: tag-free WT FBP2, expressed in E. coli
T1 sequence (O00757 2-339): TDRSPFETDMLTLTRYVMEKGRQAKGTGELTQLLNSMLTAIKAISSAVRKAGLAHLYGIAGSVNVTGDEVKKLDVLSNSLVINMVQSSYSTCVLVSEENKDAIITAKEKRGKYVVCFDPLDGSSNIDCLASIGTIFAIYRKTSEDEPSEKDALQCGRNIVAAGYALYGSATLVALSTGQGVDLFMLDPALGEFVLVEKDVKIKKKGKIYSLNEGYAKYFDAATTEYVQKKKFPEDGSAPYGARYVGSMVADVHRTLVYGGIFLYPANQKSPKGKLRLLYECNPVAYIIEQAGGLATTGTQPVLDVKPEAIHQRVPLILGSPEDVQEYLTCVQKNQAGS
Briefly: coupled glucose 6-phosphate isomerase/glucose 6-phosphate dehydrogenase activity assay; AMP-induced tetramerization by sedimentation velocity ultracentrifugation. The assay is classed as biochemical.

Assay [2] addresses T2, Muscle fructose-1,6-bisphosphatase (FBP2), L190G mutant (Homo sapiens, UniProt O00757, L191G).
T2 construct: tag-free FBP2, expressed in E. coli
T2 sequence (O00757 2-339 L191G): T1 sequence (O00757 2-339) with L190G
In words: coupled enzyme activity assay, biphasic inhibition (second phase IC50 […]). It is filed as biochemical.

Assay [3] addresses T3, Muscle fructose-1,6-bisphosphatase (FBP2), D187L mutant (Homo sapiens, UniProt O00757, D188L).
T3 construct: tag-free FBP2, expressed in E. coli
T3 sequence (O00757 2-339 D188L): T1 sequence (O00757 2-339) with D187L
Briefly: coupled enzyme activity assay; oligomerization by sedimentation velocity ultracentrifugation. The assay is classed as biochemical.

For assay [4], the target named is human FBP2 D187L mutant (human). In words: AUC; sedimentation velocity, laser interferometry, 42,000 rpm, 20°C, protein at 0.5 mg/ml, with 5 mM AMP.
For assay [5] the target is unchanged. Briefly: AUC; sedimentation velocity, laser interferometry, 42,000 rpm, 20°C, protein at 0.5 mg/ml, with 120 μM AMP.
Assay [6] shares this target. In words: AUC; sedimentation velocity, laser interferometry, 42,000 rpm, 20°C, protein at 0.1, 0.5 and 1 mg/ml, without AMP; distribution of monomers, dimers and tetramers.
The target in assay [7] is human FBP2 L190G mutant (human). In words: AUC; sedimentation velocity, laser interferometry, 42,000 rpm, 20°C, protein at 0.5 mg/ml, with 0.16 μM AMP.
Assay [8] has the same target. Briefly: AUC; sedimentation velocity, laser interferometry, 42,000 rpm, 20°C, protein at 0.5 mg/ml, with 5 mM AMP.
For assay [9] the target is unchanged. Briefly: AUC; sedimentation velocity, laser interferometry, 42,000 rpm, 20°C, protein at 0.5 mg/ml, with 120 μM AMP.
For assay [10] the target is unchanged. Briefly: AUC; sedimentation velocity, laser interferometry, 42,000 rpm, 20°C, protein at 0.1, 0.5 and 1 mg/ml, without AMP; distribution of monomers, dimers and tetramers.

Numbering of substitutions follows the chain as printed.

Regarding `Nc1ncnc2c1ncn2[C@@H]1O[C@H](COP(=O)(O)O)[C@@H](O)[C@H]1O` [AMP], the values for the concentration for half-maximal inhibition (IC50) in [1], in assay [2] and in assay [3] were 0.59 ± 0.01 µM, 84.4 ± 6.73 µM and 1.44 ± 0.06 µM, respectively.

In [4], human FBP2 D187L mutant (enzyme) displayed a percent tetrameric of 35%. Besides, the percent tetrameric in assay [5] came to 45%. Moreover, in assay [6], the percent dimeric turned out to be 83.4% and the stoichiometry N was found to be 2.

On to human FBP2 L190G mutant (enzyme), for which the stoichiometry N in [7], in assay [8], in assay [9] and in assay [10] was 2 throughout. The percent dimeric in [10] was found to be 91.2%.
